These results are taken from patent US20200010516A1.

The test concerns the target integrin αIIbβ3 on platelets of healthy donors (UniProt P08514). The experiment in a line: cell-based or functional assay.

In turn, “^39SRAGK-^46RIPRGDMP-^66RYH (Rho wild-type) (from UniProt P30403 408-475) (ligand)” had an IC50, Platelet Aggregation of 0.0832 µM.
